Like-named read-outs stand apart in the source and are kept apart here.
How the values were obtained:
[1] = target: T1, endogenous human tissue factor on MDA-MB-231 breast cancer cells (human, UniProt P13726 33-295); assay: cell-based or functional assay
[2] = target: T1, endogenous human tissue factor on …; assay: FACS on MDA-MB-231 cells
Protocol: This assay is used to detect the direct binding of antibody to endogenouse human TF expressed in breast cancer cells. Prepare four point titrations of the test mAbs in FACS buffer (1% FBS in PBS) in duplicate. Start a titration at 1,000 ng/ml with 1:4 dilutions. […] Unstained cells and secondary antibody, Cy-5 conjugated Goat anti-Human IgG Fc antibody in FACS buffer 1:200, is used as controls and prepared immediately before use.
Using standard tissue culture technique, rinse adherent MDA-MB-231 cells in culture flask with once with PBS (w/o Ca+2/Mg+2). Lift cells with Versene and count the cells and seed 200,000 cells per well in a polystyrene V-bottom plate. FACS Analysis Protocol: Tissue Factor Binding. Pellet the cells in a Allegra X-15R centrifuge at 450×g for 3 minutes at 4° C., resuspend in FACS Buffer (2% FBS in PBS) and plate 200,000 cells per well in 200 uL. Pellet cells at 450×g for 3 minutes at 4° C. Discard supernatants and add 100 uL/well test or control mAbs to designated wells and incubate on ice or at 4° C. for 1 hour (+/−10 minutes). Pellet cells at 450×g for 3 minutes at 4° C. Discard supernatants and wash cells once in FACS buffer. Resuspend cells in 200 uL/well FACS buffer and pellet cells at 450×g for 3 minutes at 4° C. Discard supernatants and add 100 uL/well secondary antibody to designated wells (triterate), and incubate on ice for 1 hour (+/−10 minutes). Pellet cells at 450×g for 3 minutes at 4° C. Discard supernatants and wash cells 2 times in FACS buffer before resuspending the cells in 200 uL/well FACS Buffer (triterate). Pellet cells at 450×g for 3 minutes at 4° C. Discard supernatant and resuspend cells in 100 uL/well CytoFix Buffer. Analyze reactions by flow cytometry (BD FACSArray). The FlowJo Software is used for FACS data analysis by gating the main population of cells in the unstained control well and applying the gate to the whole data set. The data is exported as a table of the geometric mean fluorescence intensity (MFI) in the red channel for the applied gate.

[3] = target: T1, endogenous human tissue factor on …; assay: cell-based or functional assay; remark: listed apart in the source
[4] = target: T2, recombinant extracellular domain (ECD) of human TF, amino acid 1-219 of the mature chain, C-terminal His6-tag (human, UniProt P13726 33-251); assay: Biacore
T2 construct: expressed in a mammalian system; used for ELISA and Biacore; biotinylated by NHS-ester for the Fab ELISA; also called His6-TF-ECD1-219; HumanTF1-219

[5] = target: Innovin, lyophilized recombinant human tissue factor combined with phospholipids (human, UniProt P13726 33-295, limits assumed); assay: cell-based or functional assay
[6] = target: T3, Cynomolgous monkey (cyno) TF-ECD with His Tag (cynomolgus monkey, UniProt P13726 33-251 (human entry)); assay: TF-ECD binding ELISA, chemiluminescent
T3 construct: also called cyno antigen
T3 chain: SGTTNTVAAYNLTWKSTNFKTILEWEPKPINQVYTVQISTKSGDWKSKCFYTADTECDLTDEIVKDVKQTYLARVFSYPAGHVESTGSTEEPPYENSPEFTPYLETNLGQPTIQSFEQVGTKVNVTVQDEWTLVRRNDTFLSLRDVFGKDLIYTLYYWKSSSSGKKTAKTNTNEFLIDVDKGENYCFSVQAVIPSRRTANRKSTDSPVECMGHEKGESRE

[7] = target: T2, recombinant extracellular domain (ECD) …; assay: TF-ECD binding ELISA, chemiluminescent
[8] = target: T2, recombinant extracellular domain (ECD) …; assay: Biacore; remark: listed apart in the source
[9] = target: T2, recombinant extracellular domain (ECD) …; assay: Biacore, KD compared with the reference (0.56 nM, the value of M1 in Table 5)
[10] = target: T3, Cynomolgous monkey (cyno) TF-ECD with …; assay: Biacore
[11] = target: T2, recombinant extracellular domain (ECD) …; assay: Biacore; remark: listed apart in the source

B1: M61 (antibody, V domains shown)
VH: EVQLVQSGAEVKKPGESLRISCKGSGYTFITYWIEWVRQMPGKGLEWMGDILPGSGSTNYSPSFQGHVTISADKSISTAYLQWSSLKASDTAMYYCARSGYYGNSGFAYWGQGTLVTVSS
VL: DIVMTQTPLSLSVTPGQPASISCKSSQSLLSSGNQKNYLTWYLQKPGQPPQLLIYWASTRESGVPDRFSGSGSGTDFTLKISRVEAEDVGVYYCQNDYTYPLTFGQGTKLEIK
notes: complete MAb; FR4 is its own entry; also called H22/L5
[1]
  IL-8 Induction, Ave % inhibition: 112%
[2]
  Whole Cell Binding, Ave %: 111%
[3]
  % IL-8 Inhibition: 107%
[4]
  fold lower KD than the murine parent MAb (M1): 2.5 fold
[5]
  T½ Max (seconds), coagulation of human plasma: 186 s
[6]
  EC50: 0.0241 µg/mL
[7]
  EC50: 0.0083 µg/mL
[8]
  Kd: 200 pM
  koff: 1.9e-05 s⁻¹
  kon: 94100 M⁻¹ s⁻¹
[9]
  fold lower KD than the murine parent MAb: 2.5 fold
[10]
  Kd: 1710 pM
[11]
  Kd: 210 pM
